IntAct's records for PubMed 11134025

B1: Protein kinase C-like 3 (Caenorhabditis elegans), Q19266 (parent)
chain: MSSPTSLEEDGDIKLKTRFQGQVVVLYARPPLILDDFFALLKDACKQHKKQDITVKWIDEDGDPISIDSQMELDEAVRCLNSSQEAELNIHVFVGKPELPGLPCQGEDKTVYRRGARRWKKIYLYNGHRFQAKRLNRRIQCFICHDYIWGIGRQGFRCVDCRLCVHKKCHRHVRTHCGQALQGPNIIPMAPASGSLKGARSNTSSSTTRSGGGIDNGAFHEHEIESPGSTSHDASRAMNGNGSSKWAVSLNDFRLLTVIGRGSYAKVVQAEHVSTRQIYAIKIIKKEMFNEDEDIDWVQTEKSVFEAASNYPFLVGLHSCFQTESRLFFVIEFVPGGDLMFHMQQQRKLPEEHARFYSGEIILALHFLHSRGIIYRDLKLDNVLIDAEGHIKLTDYGMCKENIKDGDLTSTFCGTPNYIAPEILRGDEYGFSVDWWALGVLMFEMMAGRSPFDIVGMQNSEENTEDYLFQIILERQIRIPRSLSVRASGILKGFLNKDPTERLGCKLDINEGLRDMKEHQFFRGFIDWEALEQKAVAPPYHPAVESDRDLTHFDHQFTDELPQLSPDNPDVIARIDQSEFDGFEYVNPLQMSREDSV
partner: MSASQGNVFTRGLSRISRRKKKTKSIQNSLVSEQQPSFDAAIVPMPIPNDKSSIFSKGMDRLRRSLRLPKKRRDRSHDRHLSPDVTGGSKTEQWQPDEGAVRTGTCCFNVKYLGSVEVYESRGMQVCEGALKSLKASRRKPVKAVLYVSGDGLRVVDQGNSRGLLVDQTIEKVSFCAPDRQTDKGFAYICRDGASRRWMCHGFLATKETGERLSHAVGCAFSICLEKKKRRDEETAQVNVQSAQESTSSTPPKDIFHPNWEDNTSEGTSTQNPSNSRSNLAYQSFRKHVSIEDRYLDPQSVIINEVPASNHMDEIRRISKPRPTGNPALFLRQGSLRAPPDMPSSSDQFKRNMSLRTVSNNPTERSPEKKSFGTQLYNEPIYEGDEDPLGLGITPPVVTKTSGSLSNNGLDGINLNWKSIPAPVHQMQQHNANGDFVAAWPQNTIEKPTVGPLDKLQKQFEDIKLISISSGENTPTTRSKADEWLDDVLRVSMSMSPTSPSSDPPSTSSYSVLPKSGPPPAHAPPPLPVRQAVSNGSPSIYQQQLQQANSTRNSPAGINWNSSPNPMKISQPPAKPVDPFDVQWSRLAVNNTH

Variants of: B1
Conditions: with num-1, Q9XTY6-1

Effect of a mutation on the interaction, decreasing interaction:
MSSPTSLEEDGDIKLKTRFQGQVVVLYARPPLILDDFFALLKDACKQHKKQDITVKWIDEDGDPISIDSQMELDEAVRCLNSSQEAELNIHVFVGKPELPGLPCQGEDKTVYRRGARRWKKIYLYNGHRFQAKRLNRRIQCFICHDYIWGIGRQGFRCVDCRLCVHKKCHRHVRTHCGQALQGPNIIPMAPASGSLKGARSNTSSSTTRSGGGIDNGAAHEHEIESPGSTSHDASRAMNGNGSSKWAVSLNDFRLLTVIGRGSYAKVVQAEHVSTRQIYAIKIIKKEMFNEDEDIDWVQTEKSVFEAASNYPFLVGLHSCFQTESRLFFVIEFVPGGDLMFHMQQQRKLPEEHARFYSGEIILALHFLHSRGIIYRDLKLDNVLIDAEGHIKLTDYGMCKENIKDGDLTSTFCGTPNYIAPEILRGDEYGFSVDWWALGVLMFEMMAGRSPFDIVGMQNSEENTEDYLFQIILERQIRIPRSLSVRASGILKGFLNKDPTERLGCKLDINEGLRDMKEHQFFRGFIDWEALEQKAVAPPYHPAVESDRDLTHFDHQFTDELPQLSPDNPDVIARIDQSEFDGFEYVNPLQMSREDSV [F219A]
MSSPTSLEEDGDIKLKTRFQGQVVVLYARPPLILDDFFALLKDACKQHKKQDITVKWIDEDGDPISIDSQMELDEAVRCLNSSQEAELNIHVFVGKPELPGLPCQGEDKTVYRRGARRWKKIYLYNGHRFQAKRLNRRIQCFICHDYIWGIGRQGFRCVDCRLCVHKKCHRHVRTHCGQALQGPNIIPMAPASGSLKGARSNTSSSTTRSGGGADNGAFHEHEIESPGSTSHDASRAMNGNGSSKWAVSLNDFRLLTVIGRGSYAKVVQAEHVSTRQIYAIKIIKKEMFNEDEDIDWVQTEKSVFEAASNYPFLVGLHSCFQTESRLFFVIEFVPGGDLMFHMQQQRKLPEEHARFYSGEIILALHFLHSRGIIYRDLKLDNVLIDAEGHIKLTDYGMCKENIKDGDLTSTFCGTPNYIAPEILRGDEYGFSVDWWALGVLMFEMMAGRSPFDIVGMQNSEENTEDYLFQIILERQIRIPRSLSVRASGILKGFLNKDPTERLGCKLDINEGLRDMKEHQFFRGFIDWEALEQKAVAPPYHPAVESDRDLTHFDHQFTDELPQLSPDNPDVIARIDQSEFDGFEYVNPLQMSREDSV [I214A]
MSSPTSLEEDGDIKLKTRFQGQVVVLYARPPLILDDFFALLKDACKQHKKQDITVKWIDEDGDPISIDSQMELDEAVRCLNSSQEAELNIHVFVGKPELPGLPCQGEDKTVYRRGARRWKKIYLYNGHRFQAKRLNRRIQCFICHDYIWGIGRQGFRCVDCRLCVHKKCHRHVRTHCGQALQGPNIIPMAPASGSLKGARSNTSSSTTRSGGGIDAGAFHEHEIESPGSTSHDASRAMNGNGSSKWAVSLNDFRLLTVIGRGSYAKVVQAEHVSTRQIYAIKIIKKEMFNEDEDIDWVQTEKSVFEAASNYPFLVGLHSCFQTESRLFFVIEFVPGGDLMFHMQQQRKLPEEHARFYSGEIILALHFLHSRGIIYRDLKLDNVLIDAEGHIKLTDYGMCKENIKDGDLTSTFCGTPNYIAPEILRGDEYGFSVDWWALGVLMFEMMAGRSPFDIVGMQNSEENTEDYLFQIILERQIRIPRSLSVRASGILKGFLNKDPTERLGCKLDINEGLRDMKEHQFFRGFIDWEALEQKAVAPPYHPAVESDRDLTHFDHQFTDELPQLSPDNPDVIARIDQSEFDGFEYVNPLQMSREDSV [N216A]
